Laboratory results as given in patent US20260258127A1 (YING MAI DE MEDICAL TECHNOLOGY GUANGDONG, published 2026).

These binders were tested against T1, CD3 (antigen of the anti-CD3 antibody, coated in the ELISA of Examples 1-3) (Homo sapiens (Human), UniProt P07766 23-126) (assay: binding activity after activation of the conjugate; method not described).
T1 construct: also called antibody antigen
T1 sequence (P07766 23-126 limits assumed, form in doubt): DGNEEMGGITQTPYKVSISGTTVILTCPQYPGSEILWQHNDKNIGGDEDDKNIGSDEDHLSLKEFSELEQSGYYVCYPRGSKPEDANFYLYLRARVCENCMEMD

Binder	Recovery of binding force after activation (%)
CD3 antibody VH-Y61C PEG40K conjugate after activation (Table 3) (antibody, V domains shown, Cys 61: PEG40K blocker released by activation (cleavage of the linker peptide); what remains on Cys 61 is not stated) VH: EVQLVESGGGLVQPGGSLRLSCAASGFTFSTYAMNWVRQAPGKGLEWVGRIRSKYNNYATCYADSVKDRFTISRDDSKNSLYLQMNSLKTEDTAVYYCARHGNFGNSYVSWFAYWGQGTLVTVSS VL: QTVVTQEPSLTVSPGGTVTLTCRSSTGAVTTSNYANWVQQKPGQAPRGLIGGTNKRAPGVPARFSGSLLGDKAALTLLGAQPEDEAEYFCALWYSNLWVFGGGTKLTVL	100%
CD3 antibody VH-Y61C PEG5K conjugate after activation (Table 3) (antibody, V domains shown, Cys 61: PEG5K blocker released by activation (cleavage of the linker peptide); what remains on Cys 61 is not stated) VH: EVQLVESGGGLVQPGGSLRLSCAASGFTFSTYAMNWVRQAPGKGLEWVGRIRSKYNNYATCYADSVKDRFTISRDDSKNSLYLQMNSLKTEDTAVYYCARHGNFGNSYVSWFAYWGQGTLVTVSS VL: QTVVTQEPSLTVSPGGTVTLTCRSSTGAVTTSNYANWVQQKPGQAPRGLIGGTNKRAPGVPARFSGSLLGDKAALTLLGAQPEDEAEYFCALWYSNLWVFGGGTKLTVL	100%
CD3 antibody VH-Y61C PEG20K conjugate after activation (Table 3) (antibody, V domains shown, Cys 61: PEG20K blocker released by activation (cleavage of the linker peptide); what remains on Cys 61 is not stated) VH: EVQLVESGGGLVQPGGSLRLSCAASGFTFSTYAMNWVRQAPGKGLEWVGRIRSKYNNYATCYADSVKDRFTISRDDSKNSLYLQMNSLKTEDTAVYYCARHGNFGNSYVSWFAYWGQGTLVTVSS VL: QTVVTQEPSLTVSPGGTVTLTCRSSTGAVTTSNYANWVQQKPGQAPRGLIGGTNKRAPGVPARFSGSLLGDKAALTLLGAQPEDEAEYFCALWYSNLWVFGGGTKLTVL	100%
CD3 antibody VH-Y61C PEG10K conjugate after activation (Table 3) (antibody, V domains shown, Cys 61: PEG10K blocker released by activation (cleavage of the linker peptide); what remains on Cys 61 is not stated) VH: EVQLVESGGGLVQPGGSLRLSCAASGFTFSTYAMNWVRQAPGKGLEWVGRIRSKYNNYATCYADSVKDRFTISRDDSKNSLYLQMNSLKTEDTAVYYCARHGNFGNSYVSWFAYWGQGTLVTVSS VL: QTVVTQEPSLTVSPGGTVTLTCRSSTGAVTTSNYANWVQQKPGQAPRGLIGGTNKRAPGVPARFSGSLLGDKAALTLLGAQPEDEAEYFCALWYSNLWVFGGGTKLTVL	100%

The binders below were run against T1, CD3 (antigen of the anti-CD3 antibody, …) (assay: binding activity after conjugation with different R1; method not described (presumably ELISA)).

Binder	Blocking fold after conjugation
CD3 antibody VH-Y61C conjugated through the cleavable linker peptide with R1 = PEG5K (Table 3) (antibody, V domains shown, Cys 61 conjugated with cleavable linker peptide P carrying blocker PEG5K, also called VH-61 Y61C PEG5K) VH: EVQLVESGGGLVQPGGSLRLSCAASGFTFSTYAMNWVRQAPGKGLEWVGRIRSKYNNYATCYADSVKDRFTISRDDSKNSLYLQMNSLKTEDTAVYYCARHGNFGNSYVSWFAYWGQGTLVTVSS VL: QTVVTQEPSLTVSPGGTVTLTCRSSTGAVTTSNYANWVQQKPGQAPRGLIGGTNKRAPGVPARFSGSLLGDKAALTLLGAQPEDEAEYFCALWYSNLWVFGGGTKLTVL	10 fold
CD3 antibody VH-Y61C conjugated through the cleavable linker peptide with R1 = PEG40K (Table 3) (antibody, V domains shown, Cys 61 conjugated with cleavable linker peptide P carrying blocker PEG40K, also called VH-61 Y61C PEG40K) VH: EVQLVESGGGLVQPGGSLRLSCAASGFTFSTYAMNWVRQAPGKGLEWVGRIRSKYNNYATCYADSVKDRFTISRDDSKNSLYLQMNSLKTEDTAVYYCARHGNFGNSYVSWFAYWGQGTLVTVSS VL: QTVVTQEPSLTVSPGGTVTLTCRSSTGAVTTSNYANWVQQKPGQAPRGLIGGTNKRAPGVPARFSGSLLGDKAALTLLGAQPEDEAEYFCALWYSNLWVFGGGTKLTVL	500 fold
CD3 antibody VH-Y61C conjugated through the cleavable linker peptide with R1 = PEG10K (Table 3) (antibody, V domains shown, Cys 61 conjugated with cleavable linker peptide P carrying blocker PEG10K, also called VH-61 Y61C PEG10K) VH: EVQLVESGGGLVQPGGSLRLSCAASGFTFSTYAMNWVRQAPGKGLEWVGRIRSKYNNYATCYADSVKDRFTISRDDSKNSLYLQMNSLKTEDTAVYYCARHGNFGNSYVSWFAYWGQGTLVTVSS VL: QTVVTQEPSLTVSPGGTVTLTCRSSTGAVTTSNYANWVQQKPGQAPRGLIGGTNKRAPGVPARFSGSLLGDKAALTLLGAQPEDEAEYFCALWYSNLWVFGGGTKLTVL	20 fold
CD3 antibody VH-Y61C conjugated through the cleavable linker peptide with R1 = PEG20K (Table 3) (antibody, V domains shown, Cys 61 conjugated with cleavable linker peptide P carrying blocker PEG20K, may be the same molecule as m19 (same value 400) or as CD3-Her2+20k; also called VH-61 Y61C PEG20K) VH: EVQLVESGGGLVQPGGSLRLSCAASGFTFSTYAMNWVRQAPGKGLEWVGRIRSKYNNYATCYADSVKDRFTISRDDSKNSLYLQMNSLKTEDTAVYYCARHGNFGNSYVSWFAYWGQGTLVTVSS VL: QTVVTQEPSLTVSPGGTVTLTCRSSTGAVTTSNYANWVQQKPGQAPRGLIGGTNKRAPGVPARFSGSLLGDKAALTLLGAQPEDEAEYFCALWYSNLWVFGGGTKLTVL	400 fold

What follows are binders tested against T1, CD3 (antigen of the anti-CD3 antibody, …) (assay: binding activity of the conjugated mutant compared with the wild-type antibody (ELISA as in Example 1)).
Description: In the present invention, the activity of each mutant with a point mutation compared to that of its initial antibody is detected by ELISA. Specifically, the 96-well plates were coated with antibody antigen overnight, then blocked with 1% BSA blocking agent (Thermo Fisher) at 37° C. for 2 hours, and washed with PBST for 3 times. The corresponding antibody or the corresponding mutant was added for binding at 37° C. for 1 hour, and then washed with PBST for 3 times. HRP enzyme-linked anti-human IgG was added for binding at 37° C. for 1 hour, and washed with PBST for 3 times. TMB substrate (Solarbio., Inc.) was used to detect absorbance at 450 nm. The effect on mutant binding strength was calculated through EC50 mutation/EC50 wild-type.

Binder	Blocking fold after conjugation (+20K)
anti-CD3 antibody mutant VH-S53C conjugated with Molecule I (+20K) (antibody, V domains shown, Cys 53 conjugated with Molecule I (+20K), also called VH-53 S53 (+20K)) VH: EVQLVESGGGLVQPGGSLRLSCAASGFTFSTYAMNWVRQAPGKGLEWVGRIRCKYNNYATYYADSVKDRFTISRDDSKNSLYLQMNSLKTEDTAVYYCARHGNFGNSYVSWFAYWGQGTLVTVSS VL: QTVVTQEPSLTVSPGGTVTLTCRSSTGAVTTSNYANWVQQKPGQAPRGLIGGTNKRAPGVPARFSGSLLGDKAALTLLGAQPEDEAEYFCALWYSNLWVFGGGTKLTVL	3 fold
anti-CD3 antibody mutant VH-Y61C conjugated with Molecule I (+20K) (antibody, V domains shown, Cys 61 conjugated with Molecule I (+20K), also called VH-61 Y61 (+20K)) VH: EVQLVESGGGLVQPGGSLRLSCAASGFTFSTYAMNWVRQAPGKGLEWVGRIRSKYNNYATCYADSVKDRFTISRDDSKNSLYLQMNSLKTEDTAVYYCARHGNFGNSYVSWFAYWGQGTLVTVSS VL: QTVVTQEPSLTVSPGGTVTLTCRSSTGAVTTSNYANWVQQKPGQAPRGLIGGTNKRAPGVPARFSGSLLGDKAALTLLGAQPEDEAEYFCALWYSNLWVFGGGTKLTVL	400 fold
anti-CD3 antibody mutant VL-Y34C conjugated with Molecule I (+20K) (antibody, V domains shown, Cys 34 conjugated with Molecule I (+20K), also called VL-34 Y34 (+20K)) VH: EVQLVESGGGLVQPGGSLRLSCAASGFTFSTYAMNWVRQAPGKGLEWVGRIRSKYNNYATYYADSVKDRFTISRDDSKNSLYLQMNSLKTEDTAVYYCARHGNFGNSYVSWFAYWGQGTLVTVSS VL: QTVVTQEPSLTVSPGGTVTLTCRSSTGAVTTSNCANWVQQKPGQAPRGLIGGTNKRAPGVPARFSGSLLGDKAALTLLGAQPEDEAEYFCALWYSNLWVFGGGTKLTVL	8 fold
anti-CD3 antibody mutant VL-R56C conjugated with Molecule I (+20K) (antibody, V domains shown, Cys 56 conjugated with Molecule I (+20K), also called VL-56 R56 (+20K)) VH: EVQLVESGGGLVQPGGSLRLSCAASGFTFSTYAMNWVRQAPGKGLEWVGRIRSKYNNYATYYADSVKDRFTISRDDSKNSLYLQMNSLKTEDTAVYYCARHGNFGNSYVSWFAYWGQGTLVTVSS VL: QTVVTQEPSLTVSPGGTVTLTCRSSTGAVTTSNYANWVQQKPGQAPRGLIGGTNKCAPGVPARFSGSLLGDKAALTLLGAQPEDEAEYFCALWYSNLWVFGGGTKLTVL	6 fold
anti-CD3 antibody mutant VL-Y94C conjugated with Molecule I (+20K) (antibody, V domains shown, Cys 94 conjugated with Molecule I (+20K), also called VL-94 Y94 (+20K)) VH: EVQLVESGGGLVQPGGSLRLSCAASGFTFSTYAMNWVRQAPGKGLEWVGRIRSKYNNYATYYADSVKDRFTISRDDSKNSLYLQMNSLKTEDTAVYYCARHGNFGNSYVSWFAYWGQGTLVTVSS VL: QTVVTQEPSLTVSPGGTVTLTCRSSTGAVTTSNYANWVQQKPGQAPRGLIGGTNKRAPGVPARFSGSLLGDKAALTLLGAQPEDEAEYFCALWCSNLWVFGGGTKLTVL	30 fold
anti-CD3 antibody mutant VH-W111C conjugated with Molecule I (+20K) (antibody, V domains shown, Cys 111 conjugated with Molecule I (+20K), also called VH-111 W111 (+20K)) VH: EVQLVESGGGLVQPGGSLRLSCAASGFTFSTYAMNWVRQAPGKGLEWVGRIRSKYNNYATYYADSVKDRFTISRDDSKNSLYLQMNSLKTEDTAVYYCARHGNFGNSYVSCFAYWGQGTLVTVSS VL: QTVVTQEPSLTVSPGGTVTLTCRSSTGAVTTSNYANWVQQKPGQAPRGLIGGTNKRAPGVPARFSGSLLGDKAALTLLGAQPEDEAEYFCALWYSNLWVFGGGTKLTVL	6 fold
anti-CD3 antibody mutant VL-K55C conjugated with Molecule I (+20K) (antibody, V domains shown, Cys 55 conjugated with Molecule I (+20K), also called VL-55 K55 (+20K)) VH: EVQLVESGGGLVQPGGSLRLSCAASGFTFSTYAMNWVRQAPGKGLEWVGRIRSKYNNYATYYADSVKDRFTISRDDSKNSLYLQMNSLKTEDTAVYYCARHGNFGNSYVSWFAYWGQGTLVTVSS VL: QTVVTQEPSLTVSPGGTVTLTCRSSTGAVTTSNYANWVQQKPGQAPRGLIGGTNCRAPGVPARFSGSLLGDKAALTLLGAQPEDEAEYFCALWYSNLWVFGGGTKLTVL	5 fold
anti-CD3 antibody mutant VL-W93C conjugated with Molecule I (+20K) (antibody, V domains shown, Cys 93 conjugated with Molecule I (+20K), also called VL-93 W93 (+20K)) VH: EVQLVESGGGLVQPGGSLRLSCAASGFTFSTYAMNWVRQAPGKGLEWVGRIRSKYNNYATYYADSVKDRFTISRDDSKNSLYLQMNSLKTEDTAVYYCARHGNFGNSYVSWFAYWGQGTLVTVSS VL: QTVVTQEPSLTVSPGGTVTLTCRSSTGAVTTSNYANWVQQKPGQAPRGLIGGTNKRAPGVPARFSGSLLGDKAALTLLGAQPEDEAEYFCALCYSNLWVFGGGTKLTVL	5 fold
anti-CD3 antibody mutant VL-N96C conjugated with Molecule I (+20K) (antibody, V domains shown, Cys 96 conjugated with Molecule I (+20K), also called VL-96 N96 (+20K)) VH: EVQLVESGGGLVQPGGSLRLSCAASGFTFSTYAMNWVRQAPGKGLEWVGRIRSKYNNYATYYADSVKDRFTISRDDSKNSLYLQMNSLKTEDTAVYYCARHGNFGNSYVSWFAYWGQGTLVTVSS VL: QTVVTQEPSLTVSPGGTVTLTCRSSTGAVTTSNYANWVQQKPGQAPRGLIGGTNKRAPGVPARFSGSLLGDKAALTLLGAQPEDEAEYFCALWYSCLWVFGGGTKLTVL	2 fold
anti-CD3 antibody mutant VL-N54C conjugated with Molecule I (+20K) (antibody, V domains shown, Cys 54 conjugated with Molecule I (+20K), also called VL-54 N54 (+20K)) VH: EVQLVESGGGLVQPGGSLRLSCAASGFTFSTYAMNWVRQAPGKGLEWVGRIRSKYNNYATYYADSVKDRFTISRDDSKNSLYLQMNSLKTEDTAVYYCARHGNFGNSYVSWFAYWGQGTLVTVSS VL: QTVVTQEPSLTVSPGGTVTLTCRSSTGAVTTSNYANWVQQKPGQAPRGLIGGTCKRAPGVPARFSGSLLGDKAALTLLGAQPEDEAEYFCALWYSNLWVFGGGTKLTVL	12 fold
